Laboratory results as given in the supplement of paper PMC10567573.

B1: BTBD1 (parent)
chain: TSAEIELPDVEPAAFLALLRFLYS

Variants of: B1
Experiment: protein stability index of a GFP-peptide fusion (GPS, HEK-293T) (PSI 1-6); higher = more stable
Details: c terminus: a fixed tail appended
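Further: lentivirally expressed fusions sorted by FACS into six bins by GFP to DsRed ratio, PSI derived from sequencing read proportions per bin multiplied by bin number.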

Variant | protein stability index
TSAEIELPDVEPAAFLNLLRFLYS [A17N] | 2.06
TSAEIELPDVEPAAFLKLLRFLYS [A17K] | 1.88
TSAEIELPDVEPAAFLSLLRFLYS [A17S] | 1.93
TSAEIELPDVEPAAFLWLLRFLYS [A17W] | 2
TSAEIELPDVEPAAFLELLRFLYS [A17E] | 2.12
TSAEIELPDVEPAAFLYLLRFLYS [A17Y] | 1.98
TSAEIELPDVEPAAFLMLLRFLYS [A17M] | 1.62
TSAEIELPDVEPAAFLLLLRFLYS [A17L] | 2.04
TSAEIELPDVEPAAFLGLLRFLYS [A17G] | 2.27
TSAEIELPDVEPAAFLFLLRFLYS [A17F] | 1.98
TSAEIELPDVEPAAFLCLLRFLYS [A17C] | 1.53
TSAEIELPDVEPAAFLDLLRFLYS [A17D] | 1.89
TSAEIELPDVEPAAFLQLLRFLYS [A17Q] | 1.61
TSAEIELPDVEPAAFLHLLRFLYS [A17H] | 1.67
TSAEIELPDVEPAAFLTLLRFLYS [A17T] | 2.38
TSAEIELPDVEPAAFLRLLRFLYS [A17R] | 2.42
TSAEIELPDVEPAAFLALLFFLYS [R20F] | 2
TSAEIELPDVEPAAFLALLTFLYS [R20T] | 4.67
TSAEIELPDVEPAAFLALLEFLYS [R20E] | 1.77
TSAEIELPDVEPAAFLALLMFLYS [R20M] | 2.54
TSAEIELPDVEPAAFLALLHFLYS [R20H] | 1.79
TSAEIELPDVEPAAFLALLPFLYS [R20P] | 2.01
TSAEIELPDVEPAAFLALLVFLYS [R20V] | 3.16
TSAEIELPDVEPAAFLALLKFLYS [R20K] | 1.29

Variant | protein stability index
TSAEIELPDVEPAAFLALLSFLYS [R20S] | 1.93
TSAEIELPDVEPAAFLALLCFLYS [R20C] | 1.19
TSAEIELPDVEPAAFLALLNFLYS [R20N] | 1.71
TSAEIELPDVEPAAFLALLWFLYS [R20W] | 3.4
TSAEIELPDVEPAAFLALLAFLYS [R20A] | 2.08
TSAEIELPDVEPAAFLALLLFLYS [R20L] | 3.18
TSAEIELPDVEPAAFLALLYFLYS [R20Y] | 2.09
TSAEIELPDVEPAAFLALLDFLYS [R20D] | 1.38
TSAEIELPDVEPAAFLALLQFLYS [R20Q] | 2.05
TSAEIELPDVEPAAFLALLGFLYS [R20G] | 2.67
TSAEIELPDVEPAAFLALLRFLCS [Y23C] | 1.79
TSAEIELPDVEPAAFLALLRFLAS [Y23A] | 1.99
TSAEIELPDVEPAAFLALLRFLDS [Y23D] | 1.49
TSAEIELPDVEPAAFLALLRCLYS [F21C] | 1.4
TSAEIELPDVEPAAFLALLRWLYS [F21W] | 2.41
TSAEIELPDVEPAAFLALLRHLYS [F21H] | 2.14
TSAEIELPDVEPAAFLALLRNLYS [F21N] | 1.69
TSAEIELPDVEPAAFLALLRVLYS [F21V] | 2.01
TSAEIELPDVEPAAFLALLRYLYS [F21Y] | 1.61
TSAEIELPDVEPAAFLALLRKLYS [F21K] | 1.78
TSAEIELPDVEPAAFLALLRSLYS [F21S] | 1.97
TSAEIELPDVEPAAFLALLRILYS [F21I] | 2.25
TSAEIELPDVEPAAFLALLRELYS [F21E] | 1.82
TSAEIELPDVEPAAFLALLRALYS [F21A] | 2.21

Variant | protein stability index
TSAEIELPDVEPAAFLALLRLLYS [F21L] | 2.01
TSAEIELPDVEPAAFLALLRRLYS [F21R] | 2.25
TSAEIELPDVEPAAFLALLRDLYS [F21D] | 1.85
TSAEIELPDVEPAAFLALLRQLYS [F21Q] | 1.99
TSAEIELPDVEPAAFLALLRGLYS [F21G] | 2.18
TSAEIELPDVEPAAFLALLRTLYS [F21T] | 1.89
TSAEIELPDVEPAAFLALLRMLYS [F21M] | 1.94
TSAEIELPDVEPAAFLALLRPLYS [F21P] | 1.8
TSAEIELPDVEPAEFLALLRFLYS [A14E] | 1.66
TSAEIELPDVEPAKFLALLRFLYS [A14K] | 1.63
TSAEIELPDVEPAWFLALLRFLYS [A14W] | 2.2
TSAEIELPDVEPAFFLALLRFLYS [A14F] | 1.91
TSAEIELPDVEPARFLALLRFLYS [A14R] | 1.87
TSAEIELPDVEPAPFLALLRFLYS [A14P] | 2.05
TSAEIELPDVEPAGFLALLRFLYS [A14G] | 2.04
TSAEIELPDVEPADFLALLRFLYS [A14D] | 2
TSAEIELPDVEPAIFLALLRFLYS [A14I] | 1.72
TSAEIELPDVEPANFLALLRFLYS [A14N] | 1.92
TSAEIELPDVEPATFLALLRFLYS [A14T] | 1.8
TSAEIELPDVEPAVFLALLRFLYS [A14V] | 2.28
TSAEIELPDVEPAYFLALLRFLYS [A14Y] | 1.8
TSAEIELPDVEPALFLALLRFLYS [A14L] | 1.4
TSAEIELPDVEPACFLALLRFLYS [A14C] | 1.84
TSAEIELPDVEPAMFLALLRFLYS [A14M] | 1.47

Variant | protein stability index
TSAEIELPDVEPAQFLALLRFLYS [A14Q] | 1.77
TSAEIELPDVEPAHFLALLRFLYS [A14H] | 2.04
TSAEIELPDVEPASFLALLRFLYS [A14S] | 2.41
TSAEIELPDVEPAAFLALIRFLYS [L19I] | 2.37
TSAEIELPDVEPAAFLALNRFLYS [L19N] | 1.77
TSAEIELPDVEPAAFLALPRFLYS [L19P] | 2.11
TSAEIELPDVEPAAFLALVRFLYS [L19V] | 1.72
TSAEIELPDVEPAAFLALWRFLYS [L19W] | 1.98
TSAEIELPDVEPAAFLALERFLYS [L19E] | 2.31
TSAEIELPDVEPAAFLALDRFLYS [L19D] | 3.54
TSAEIELPDVEPAAFLALFRFLYS [L19F] | 1.58
TSAEIELPDVEPAAFLALQRFLYS [L19Q] | 1.51
TSAEIELPDVEPAAFLALYRFLYS [L19Y] | 2.49
TSAEIELPDVEPAAFLALMRFLYS [L19M] | 2.05
TSAEIELPDVEPAAFLALKRFLYS [L19K] | 2.07
TSAEIELPDVEPAAFLALHRFLYS [L19H] | 2.05
TSAEIELPDVEPAAFLALTRFLYS [L19T] | 1.76
TSAEIELPDVEPAAFLALRRFLYS [L19R] | 1.84
TSAEIELPDVEPAAFLALCRFLYS [L19C] | 1.94
TSAEIELPDVEPAAFLALSRFLYS [L19S] | 1.69
TSAEIELPDVEPAAFLALGRFLYS [L19G] | 1.89
TSAEIELPDVEPAAFLALARFLYS [L19A] | 1.9
